What is called koff is the rate constant with which the complex falls apart. What is called kon is the second-order rate constant of association.

Six molecules from US20240124597A1 (Bristol-Myers Squibb, published 2024) can be followed below.

In assay [1] the target is human CD40 on cells (tonsillar B cells, immature dendritic cells, Ramos-Blue cells) (human, UniProt P25942 21-277). Nature of the assay: cell-based or functional assay.
Assay [2] deals with T1, human-CD40-monomer protein (human, UniProt P25942 21-193, limits assumed).
T1 construct: Soluble monomer generated in house, used as SPR analyte; also called hCD40; hCD40-monomer
T1 sequence (P25942 21-193 limits assumed): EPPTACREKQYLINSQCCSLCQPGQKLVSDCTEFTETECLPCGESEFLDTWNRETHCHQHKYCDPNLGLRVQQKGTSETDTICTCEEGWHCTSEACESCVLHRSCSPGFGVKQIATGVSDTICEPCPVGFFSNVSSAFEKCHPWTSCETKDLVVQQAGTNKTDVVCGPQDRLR
The experiment in a line: SPR, Ab captured on protein A, hCD40 monomer 500 and 50 nM, 1:1 fit; supernatant. Summed up:
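Antibodies captured on protein A surface; human CD40 monomer injected as analyte at 500 nM and 50 nM. Kinetic data from both concentrations fitted to 1:1 Langmuir model to estimate kinetic and affinity values. Supernatant titers determined by BLI protein A capture against a control antibody standard curve.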
(In general: In SPR one partner is held on a chip, and binding of the other changes the refractive index at the surface.)

Assay [3] addresses T1, human-CD40-monomer protein. Nature of the assay: SPR, purified Ab captured on protein A, hCD40 monomer 500-3.9 nM, 25 C, 1:1 Langmuir fit. The protocol: (§1) Based on the sequences, titer, and SPR binding data, antibodies were selected for larger scale expression, purification, and further characterization. SPR analysis using purified antibodies was performed by capturing antibodies on a protein A surface, with binding of a 500-3.9 nM (2:1) dilution series of human-CD40 monomer, at either 25° C. or 37° C. in PBS-T pH 7.1 buffer; the titration data was fit to a 1:1 Langmuir model.
(§2) SPR data are fit to a 1:1 Langmuir model using BIAcore™ T200 evaluation software to obtain values for the association rate constant (ka), dissociation rate constant (kd) and dissociation constant (KD).

For assay [4], the target named is T1, human-CD40-monomer protein. The experiment in a line: SPR, purified Ab captured on protein A, hCD40 monomer 500-3.9 nM, 37 C, 1:1 Langmuir fit. The procedure:
as §1, §2

The target of assay [5] is T1, human-CD40-monomer protein. Nature of the assay: SPR, Ab captured on protein A, hCD40 monomer 500 and 50 nM, 1:1 fit; purified. The protocol: Titer analysis was performed using Biolayer Interferometry (BLI) on an Octet RED instrument (Fortebio) by capturing antibodies from supernatant using protein A sensor tips and measuring capture response with respect to a standard curve obtained using a control antibody sample. SPR data were obtained by capturing antibodies on a protein A surface and testing the binding of 500 nM and 50 nM injections of human-CD40 analyte, using a BIAcore™ T200 instrument (GE Healthcare). The kinetic data for the two concentrations of hCD40-monomer were fit to a 1:1 Langmuir model, to yield estimates of the kinetic and affinity values for these interactions, and for comparison of the different molecules.

The target in assay [6] is T1, human-CD40-monomer protein. Nature of the assay: SPR, Ab captured on protein A, 1 uM hCD40 monomer, single concentration, apparent value. The procedure:
The CD40 kinetic and affinity data for human-CD40 monomer binding to mouse anti-human CD40 antibodies captured on a protein A sensor chip surface were assessed by SPR. The data shown are for a single concentration of CD40 analyte (1 μM) and are therefore reported as apparent (app) values.

Sequence of human CD40 on cells (tonsillar B cells, immature dendritic cells, Ramos-Blue cells) (P25942 21-277 limits assumed): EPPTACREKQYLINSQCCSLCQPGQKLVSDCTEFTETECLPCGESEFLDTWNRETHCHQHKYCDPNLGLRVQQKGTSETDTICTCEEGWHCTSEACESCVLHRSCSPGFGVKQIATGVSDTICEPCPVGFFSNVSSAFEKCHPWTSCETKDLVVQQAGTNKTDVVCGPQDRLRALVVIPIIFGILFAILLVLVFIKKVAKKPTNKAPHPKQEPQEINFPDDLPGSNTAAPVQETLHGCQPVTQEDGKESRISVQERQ

B1: Y12XX-hz42-P238K (antibody, human IgG1, kappa, V domains shown)
VH: QVQLVQSGAEVKKPGSSVKVSCKASGYAFTSYWMHWVRQAPGQGLEWMGQINPTTGRSQYNEKFKTRVTITADKSTSTAYMELSSLRSEDTAVYYCARWGLQPFAYWGQGTLVTVSS
VL: EIVMTQSPATLSVSPGERATLSCKASQDVSTAVAWYQQKPGQAPRLLIYSASYRYTGIPARFSGSGSGTEFTLTISSLQSEDFAVYYCQQHYSTPWTFGGGTKVEIKR
notes: also called Vh-hz14;Vk-hz3
As to B1, the “Inhibition of B cell proliferation induced by soluble CD40L trimer, Average (IC50 ng/ml)” value in assay [1] stood at 12.1 ng/mL. For the same molecule, in assay [2], the Kd was found to be 3.5 nM, the koff amounted to 0.00083 s⁻¹ and the kon is 240000 M⁻¹ s⁻¹. In addition, in assay [3], the Kd turned out to be 2.3 nM, the off-rate (koff) is 0.00073 s⁻¹ and the kon worked out at 310000 M⁻¹ s⁻¹. In assay [4], this molecule came in with a Kd of 5.5 nM, a koff of 0.0034 s⁻¹ and a kon of 630000 M⁻¹ s⁻¹.

B2: Y12XX-hz40-P238K (antibody, human IgG1, kappa, V domains shown)
VH: QVQLVQSGAEVKKPGSSVKVSCKASGYAFTSYWMHWVRQAPGQGLEWMGQINPSQGRSQYNEKFKTRVTITADKSTSTAYMELSSLRSEDTAVYYCARWGLQPFAYWGQGTLVTVSS
VL: EIVMTQSPATLSVSPGERATLSCKASQDVSTAVAWYQQKPGQAPRLLIYSASYRYTGIPARFSGSGSGTEFTLTISSLQSEDFAVYYCQQHYSTPWTFGGGTKVEIKR
notes: also called Vh-hz12;Vk-hz3
With B2, the “Inhibition of B cell proliferation induced by soluble CD40L trimer, Average (IC50 ng/ml)” value in assay [1] turned out to be 6 ng/mL. In assay [2], this molecule yielded a Kd of 4.7 nM, a koff of 0.0011 s⁻¹ and an on-rate constant (kon) of 240000 M⁻¹ s⁻¹. Moreover, in assay [3], the Kd stood at 4.4 nM, the koff was found to be 0.0013 s⁻¹ and the kon is 290000 M⁻¹ s⁻¹. Moreover, in assay [4], the Kd is 10.9 nM, the koff is 0.0057 s⁻¹ and the association rate constant (kon) was found to be 520000 M⁻¹ s⁻¹.

B3: Y1268-hIgG1f (antibody, V domains shown)
VH: QVQLQQPGAELVKPGASVRLSCKASGYAFTSYWMHWVKQRPGQGLEWIGQINPSNGRSQYNEKFKTMATLTVDKSSSTAYIQLSSLTSEDSAVYYCARWGLQPFAYWGQGTLVTVSA
VL: DIVMTQSHKFMSTSVGDRVSITCKASQDVSTAVAWYQQKPGQSPKLLIYSASYRYTGVPDRFTGSGSGTDFTFTISSVQAEDLAVYYCQQHYSTPWTFGGGTKLEIK
notes: Purified chimeric antibody with human wild-type IgG1f; also called purified chimeric Y1268; Chim-P
For the molecule B3, in assay [5], the Kd was 3.2 nM, the dissociation rate constant (koff) came to 0.0013 s⁻¹ and the kon was determined as 400000 M⁻¹ s⁻¹.

B4: Y1258-hIgG1f (antibody)
heavy: not shown
VL: DIVMTQSHKFMSTSVGDRVSITCKASQDVSTAVAWYQQKPGQSPKLLIYSASYRYTGVPDRFTGSGSGTDFTFTISSVQAEDLAVYYCQQHYSTPWTFGGGTKLEIK
notes: Purified chimeric antibody, mouse variable regions with human wild-type IgG1f; also called purified chimeric Y1258; Chim-P
In assay [5], B4 gave a Kd of 0.01 nM, a koff of 5.9e-07 s⁻¹ and a kon of 58000 M⁻¹ s⁻¹.

B5: ADX_Y1238.ZZ0-1 (antibody, V domains shown)
VH: QVQLQQSGAELVRPGTSVKVSCKASGYAFTNYLIEWVKQRPGQGLEWIGVINPGSGGTNYNEKFKGKATLTADKSSSTAYMQLSSLTSDDSAVYFCARSQLGRRFDYWGQGTTLTVSS
VL: DIVMTQSHKFMSTSVGDRVSITCKASQDVRTGVAWYQQKPGQSPKLLIYSASYRNTGVPDRFTGSRSGTDFTFTISSVQAEDLAVYYCQQHYSPPYTFGGGTKLEIK
notes: Mouse anti-human-CD40 antibody
For B5, in assay [6], the Kd is 2.2 nM, the koff came out at 0.00012 s⁻¹ and the on-rate constant (kon) came to 55000 M⁻¹ s⁻¹.

B6: Y1262-hIgG1f (antibody)
heavy: not shown
VL: DIVMTQSHKFMSTSVGDRVSITCKASQDVSTAVAWYQQKPGQSPKLLIYSASYRYTGVPDRFTGSGYGTDFTFTISSVQAEDLAVYYCQQHYSTPWTFGGGTKLEIK
notes: Purified chimeric antibody with human wild-type IgG1f; also called purified chimeric Y1262; Y1632-hIgG1f
In assay [5], B6 gave a Kd of 12 nM, an off-rate (koff) of 0.0055 s⁻¹ and a kon of 480000 M⁻¹ s⁻¹.
